# Biological target: BQ.1.1 spike protein (SARS-CoV-2 variant BQ.1.1, UniProt P0DTC2 14-1273)
# Assay: cell-based or functional assay
Binder,IC50 (pVNT) [ng/ml],concentration required to effectively neutralize (pVNT) [ng/ml],times less than the concentration of E7 [times]
"Ab6 (K23) (antibody, V domains shown) VH: EVQLVESGGGLVQPGGSLRLSCSASGFTFNNYVMHWVRQAPGKGLEYVSAINSNGGSTYYAGSVKGRFTISRDNSNNTLYLQMSSLRAEDTAVYYCIKDAGYYSSLGVDSWGQGTLVTVSS VL: EIVLTQSPATLSLSPGERATLSCRASQSVGSYLAWFQQKPGQAPRLLIYDASYRATGIPARFSGSGSGTDFTLTISSLEPEDVGIYYCQQRSNWPQTFGGGTKVDIK",≤ 550,,
"Ab32 (10x-L8N-c12) (antibody, V domains shown) VH: EVQLVESGGGLVQPGGSLRVTCVASGFAVRTNFMTWVRQAPGKGLQCVSVIYGDGSTYYADSVKGRFSISRDNSKNTVYLQMNSLSAEDTAVYYCAREVSHAFDLWGPGTMVTVSS VL: DIQLTQSPSTLSASLGDRVTITCRASQSISGWLAWYQQKPGRAPQLLIYKASLLETGVPSRFSGSGSGTVFTLTISSLQPDDFATYYCQQYDTYSPYTFGQGTKLEIK",≤ 550,,
"Ab22 (C9.1) (antibody, V domains shown) VH: QVQLVQSGAEVKKPGSSVKVSCKASGGTFSSYGISWVRQAPGQGLEWMGRIIPSLSITNSAEKFQGRVTITADKSTSTAYMELSRLRSEDTALYYCARDFHPRYEFCDSTSCYDEWEPRMDVWGQGTTVTVSS VL: not shown",≤ 550,,
"Ab25 (H10.2) (antibody, V domains shown) VH: QVQLVQSGAEVKKPGSSVKVSCKASRGTFSNYAISWVRQAPGQGLEWMGRIIPSLSITNSAEKFQGRVTMTADKSTSTVYMELSRLRSEDTAVYYCARDFHPRYEYCSSTSCYDEWEPRMDVWGQGTTVTVSS VL: not shown",≤ 550,,
"Ab40 (10x-L8N-c32) (antibody, V domains shown) VH: QVQLQESGPRLVKPSETLSLTCTVSGGSISSYYWTWIRQPPGKGLEWIGYISYSGSTNYNPSLRSRVTMSVDTSKNQFSLDLNSVTAADTAVYYCATDGGGFYPGYFPHWGQGTLVTVSS VL: DIQMTQSPSSLSASVGDRVTITCRASQSISDYVNWYQQKPGRAPRLLIYAPSTLQSGVPSRFSGSGSGTDFTLTISNLQPEDFGTYFCQQSYSTPPYTFGQGTKVEMK",≤ 550,,
"Ab28 (10x-L8N-c1) (antibody, V domains shown) VH: QFQLVQSGAEVKKPGSSVKVSCRASGGSFTSHAISWVRQAPGQGFEWMGRIIPMFGIANYAPKFQGRVTMSADKFKDIVYMEVNSLTSEDTALYYCARSQPMTSVTTLWFDPWGQGTLVTVSS VL: EIVLTQSPGTLSLSPGERATLSCRASEPVGGSYLAWYQQKPGQAPRLLIHGASSRATGIPDRFSGSGSGTDFVLTISRLEPEDFAVYHCQQYASSPYTFGQGTKLEIK",≤ 550,,
"Ab9 (C68) (antibody, V domains shown) VH: QVQLVQSGAEVKKPGASVKVSCKISGYTLTDFSIHWVRQAPGKGLEWMAGFDPEHRETIFAQKFQGRVAMTEATSTDTAYMELSSLRSDDTAVYYCATTGDFDSWRGYYLWGQGTLVTVSA VL: DIQLTQSPSSVSASVGDSVTITCRASQGISRWLAWYQQKPGKAPRLLIYSASTLQSGVPSRFSGSGSGTDFTLTISSLQPDDFATYYCQHTNNFPFSFGPGTKVDIK",≤ 550,,
"Ab21 (E6.1) (antibody, V domains shown) VH: QVQLVQSGAEVKKPGSSVEVSCKASGGTFSSYAISWVRQAPGQGLEWMGRIIPSLGITNSAENFQGRVTITADKSTSTVYMELSSLRSEDTAVYYCARDFHPLYQSCSSTSCYDEWEPRMDVWGQGTTVTVSS VL: not shown",≤ 550,,
"Ab23 (B10.1) (antibody, V domains shown) VH: QVQLVQSGAEVKKPGSAVKVSCKASGGTFSSYPITWVRQAPGQGLEWVGRAIPILGITSTAQKFQGRVTIIADKSTSTAYMELSRLRSEDTAVYYCARDFHPRYQDCDSTSCYDQWEPRMDVWGQGTTVTVSS VL: not shown",≤ 550,,
"Ab14 (F9) (antibody, V domains shown) VH: EVQLVESGGGLVQPGGSLRLSCATSGFTFDDFAMHWVRQGPGKGLEWVSGISWNSGKIAYTDSVKGRFSISRDNAKNSLYLQMNSLRPEDTALYYCTKDHAPSAILGDILTGFDPWGQGTLVT VL: DIQMTQSPVSLSASVGDRVTITCRASQSISVYLNWYQQKPGKAPKLLMYAASILQSGVPSRFSGSGSATDFTLTITSLQPEDFATYFCQQSFTMPPTFGQGTNLEIK",≤ 550,,
"Ab3 (C2.2) (antibody, V domains shown) VH: QVQLVQSGAEVKKPGSSVRVSCEASGDTFSRYAISWVRQAPGQGLEWMGRIIPMFGMANSAQKFQARVTISADKSTSTAYMEVSSLRSEDTAVYYCATDTFYPNDGVHRMEYWGQGALVIVSS VL: DIQMTQSPSSLSASVGDRVTITCRASQTISNYLNWYQQKPGKAPNLLIYGTSILQSGVPSRFSGSGSGTDFTLTISSLQPEDFATYYCQQSHSAPRTFGPGTKVDIK",≤ 300,271,~2
"Ab7 (G1) (antibody, V domains shown) VH: EVQLVESGGGLVKPGGSLRLSCAASGFTVSTYIINWVRQAPGKGLEWVSSITSESDYMFDADSVRGRFTISRDNAKNLVYLQMNSLRAEDTAVYYCARDQGAYSGYDLSPGGDAFDVWGQGTMVTVSS VL: DIQMTQSPSTLSASVGDRVTITCRASQSISTWLAWYQQKPGKAPKLLIYKASNLESGVPSRFSGSGSGTEFTLTISRLQPDDSATYCCQHYNSYPYTFGQGTKVEIK",≤ 550,,
"Ab8 (B9) (antibody, V domains shown) VH: EVQLVQSRAEVKKPGESLKISCKGSGYSFTTYWIGWVRQMPGKGLEWMGIIRPGDSDTRYSPSFQGQVTISADKSITTAYLQWSSLKASDTAMYYCAMTYSGDQYDFWGQGTVVTVSS VL: DIQMTQSPSTLSASVGDRVTITCRASQSIHTWLAWYQQTPGKAPKLLIYKASLLESGVPSRFSGSGSGTEFTLTISSLQPGDFATYYCQHYNSYSHTFGQGTKVEIK",≤ 550,,
"Ab27 (E12.2) (antibody, V domains shown) VH: EVQLVESGGGLVQPGGSLRLSCGASGITVSSNYMNWVRQAPGKGLEWVSTLYAGGSTFYADSVKGRFIISRDNSKNTLYLQMNSLRADDTAVYYCARDLVDYGMDVWGQGTTVTVSS VL: DIQLTQSPSSLSASVGDRVTITCRASQGISSYLAWYQQKPGKAPKLLIYAASTLQSGVPSRFSGSGSGTDFTLTISSLQPEDFATYYCQQLNSYSPFTFGPGTKVDIK",≤ 550,,
"Ab20 (C6.1) (antibody, V domains shown) VH: EVQLVESGGGLVKPGGSLRLSCAASGFAFSTNGMNWVRQVPGKGLEWVSSISSTSEYTYYTESVKGRFTISRDNAKNSLFLQMNSLRAEDTAVYYCVRDRFGYYDVLASSYNVGFFQSWGQGALVTVSS VL: DIQMTQSPSSLSASVGDGVTITCRASQDISNNLAWFQQKPGKAPKCLIYSASSLQSGVPLKFRGSGSGTDFTLSITSLDPEDFATYYCQQYISYPITFGQGTRLDIK",≤ 550,,
"Ab12 (H5) (antibody, V domains shown) VH: EVQLLESGGGLVQPGGSLRLSCAASGFTFSGSDMSWVRQAPGKGLEWVSVIGGSGTYAYYSDSVKGRFTISRDNSKNMLFLQMNSLRAEDTAIYYCAKETGFLWFGELLDSWGQGALVTVSS VL: DIQMTQSPSSLSASVGDRVTITCRASEAISNSLAWYQQRPGKAPRLLLYAAATLESGVPPRFSGSGSGTDFTLTISTLQPEDFATYYCQQYYSPPPRTFGQGTKVEIK",≤ 550,,
"Ab19 (F5.1) (antibody, V domains shown) VH: EVQLVESGGGLVKPGGSLRLSCAASGFIFSRNGMHWVRQAPGKGLEWVSSIDNDGTYMYYADSVRGRFTVSRDNAKNSLFLQLNSLRAEDTAVYYCARDRFGYYDALTDSYNAGYFDSWGQGTLVTVSS VL: DIQMTQSPSSLSASVGDSVTITCRASQDIYNYLAWFQQKPGKAPKSLIYTASKLESGVPSKFSGSGSGTDFTLTISSLQPEDFATYYCQQYHSSPITFGQGTRVEIK",≤ 550,,
"Ab4 (G7.2) (antibody, V domains shown) VH: QVQLVQSGAEVKKPGSSVKVSCEASGGTFSTYAISWVRQAPGQGLEWMGRIIPIFGIANYAQKFQGRVTITADKSTSTAYMEVSSLRSEDTAVYYCATTFYDHSSTYRTHSMDVWGQGTTVTVSS VL: DIQMTQSPSSLSASVGDRVTITCRASQSISNYLNWYQQRPGKAPKLLIYAASGLQSGVPSRFSGSGSGTNFTLTISTLHPEDFATYYCQQTHSTPRAFGGGTKVEIK",≤ 300,48.4,~11
"Ab11 (D4) (antibody, V domains shown) VH: QVQLQESGPRLVKPSGTLSLSCAVSGGPFSNTNWWSWIRQTPGKGLEWIGEINDSGNTVYNPALKSRVTMSVDKSKKQFSLNLHSLTAADTAVYFCARVWGHFDYWGQGVRVTVSS VL: DIQMTQSPSSLYASVADRVTITCRASQGISNSLAWYQQQPGKAPQLLLYAASTLESGVPSRFSGSGSGTDFTLTISSLQPEDFATYYCQQYYSLRTFGGGTKVEIK",≤ 550,,
"Ab35 (10x-L8N-c20) (antibody, V domains shown) VH: QVQLQESGPGLVKPSETLSLTCTVSGDSIYSYSWTWIRQPPGKGLEWIGQLYYNGSTSYNASLKSRVSISLDTSKNQFSLKLRFVTAADTAMYYCARVEYYSNYFDPWGQGTQVTVSS VL: EIVLTQSPATLSLSPGERATLSCRASQSVGSYLAWYQQKPGQAPRLLIYDASNRVPGIPARFSGSGSGTDFTLTISSLPPEDFAVYYCQQRSDWPPTFGGGTKVEIR",≤ 550,,
"Ab13 (D10) (antibody, V domains shown) VH: EVQLVESGGGLVQPGRSLRLSCAASGFTFDEYAMHWVRQAPGKGLEWVSGISFNSGSVGYAGAAKGRFTISRDNAKKSLYLEMNSLRDEDTAFYYCAKDRGEHWLVRLFDSWGQGTLVTVSS VL: DIQMTQSPSTLSASVGDRVTITCRPSQSIDRWLAWYQQKPGKAPTLLISAASSLETGVPSRFSGSGSGTEFTLTISSLQPDDFATYYCQQYNGYSMFGPGTKVEIK",≤ 550,,
"Ab39 (10x-L8N-c30) (antibody, V domains shown) VH: QVQLVQSGAEVKKPGSSVKISCKASGDTSSSYTINWVRQAPGQGLEWMGRIIPMFNRANYARKFQGRVTMTADRSTDTAYMEVSSLTSDDTAVYYCARTWIEPHNWFDPWGQGTLVTVSS VL: EIVLRQSPGTLSLSPGERATLSCRASQSVSGNHLAWYQRKPGQAPRLLIYAASSRATGIPDRFSGSGSGTDFTLTINRLEPEDFAVFYCQQYGTSPPTFGGGTKVEIK",≤ 550,,
"Ab26 (G4.2) (antibody, V domains shown) VH: QVQLVQSGAEVKKPGSSVKVSCKASGGTFSSHTVSWVRQAPGQGLEWMGRIIPPFGIVNYAQKFQGRVTMTADESTSTAYMELSSLRSEDTAVYYCARSNVVVVTEAGWFDPWGQGTLVTVSS VL: DIQMTQSPSSVSASVGDRVSISCRASQDISSSLAWYQQKPGQAPKVLIYDASTLQSGVPSRFSGSGSGTDFTLTISNLRPDDFATYFCQQAHSFPFTFGPGTKVDIR",≤ 550,,

# Source: patent US20260209318A1 (NATIONAL UNIVERSITY OF SINGAPORE, published 2026)
